Columns and labels:
[1] = biological target: T1, mouse folate receptor alpha (mFRα), recombinant protein (mouse, UniProt P35846 25-232); assay: ELISA on mouse FRα, anti-VHH detection
T1 construct: Bought recombinant proteins (e.g. biotinylated, Acro Biosystems FO1-M82E9); also called mFOLR1; Ms FOLR1
Outline: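 Dose-dependent binding of VHH variants to mouse folate receptor alpha was measured by ELISA with anti-VHH detection. EC50 was read off the dose-response curve.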

[2] = biological target: T2, human folate receptor alpha (hFRα), recombinant protein (human, UniProt P15328 25-233); assay: ITC, VHH injected into 6.5 µM glycosylated human FOLR1
T2 construct: Bought recombinant proteins (His-tagged, or biotinylated via Avi-tag, e.g. AcroBiosystems FO1-H82E2, F01-H52H1); also called hFOLR1; huFOLR1
Excerpt: (§1) To exclude the presence of a potential additional binding site mediated by the CDR4 region, we determined the stoichiometry if the humanized variant h1 2HFO42 (P01500001) and h1 2MFR67 (P01500005) interaction with human FOLR1 in isothermal titration […] (ITC) studies, using glycosylated human FOLR protein (AcroBiosystems Cat. Nr F01-H52H1). All proteins were dialysed overnight to PBS buffer and concentrated using Amicon Ultra 10 kDa cut-off centrifugal filter devices. Human FOLR1 was used at a concentration of 6.5 μM in the cell. Titrations comprised 26×1.5 μL injections of VHH into the protein, with 90 s intervals. An initial injection of ligand (0.4 μL) was made and discarded during data analysis. All data were performed at room temperature. The data were fitted to a single binding site model using the PEAQ ITC analysis software provided by the manufacturer.
Similarly, a stoichiometry of 1:1 was determined for the 2MFR67-FOLR1 interaction. When comparing the thermodynamic parameters, binding of 2MFR67 to FOLR1 comes with an entropic penalty, whereas the entropic contribution for humanised 2HFO42-FOLR1 binding is favorable. This could be a consequence of the CDR4 loop having more freedom in 2MFR67, resulting in an entropic penalty upon binding. […]

[3] = biological target: T2, human folate receptor alpha (hFRα), …; assay: competition AlphaLISA against 2MFR67-Flag3-His6 on human FRα
Experimental: Secondly, the variants were analysed for the capacity to compete with binding of family 3 VHH 2MFR67 to human FRα in a competition AlphaLISA, which is a homogeneous assay without wash steps. In here, human FRα biotinylated through an Avi-tag ^{∘}FO1-H82E2, AcroBiosystems) is captured on streptavidin coated Alpha Donor beads ^{∘}Perkin Elmer, Cat nr. 6760002), while the 2MFR67 is captured on anti-Flag antibody AlphaLISA acceptor beads ^{∘}Perkin Elmer, Cat nr. AL112C). Binding of 2MFR67 to the FRα leads to an energy transfer from one bead to the other, ultimately producing a fluorescent signal. To each well of white low binding 384-well microtitre plates ^{∘}F-bottom, Greiner Cat nr 781904), 5 μl of serial-diluted VHHs are mixed with 5 μl of 2.5 nM monovalent 2MFR67-Flag3-His6 and 5 μl of 15 nM biotinylated human FRα protein. After an incubation for 1 hour at room temperature, streptavidin coated Alpha Donor beads and anti-Flag AlphaLISA acceptor beads were added to a final concentration of 20 μg/mL each in a final volume of 25 μl for an incubation of 1 hour at room temperature in the dark. Interaction between beads was assessed after illumination at 680 nm and reading at 615 nm of on an Ensight instrument. Curve fitting is done in Graphpad Prism 9.0 using 4PL non-linear regression analysis.

[4] = biological target: T2, human folate receptor alpha (hFRα), …; assay: BLI, Avi-biotinylated FRα on streptavidin biosensors, VHH 100 nM
Experimental: (§2) The binding of humanized variants of 2HFO42 was assessed by kinetic binding analysis to mouse and human FRα protein, biotinylated via an Avi-tag, captured on streptavidin biosensors by biolayer interferometry ^{∘}BLI), essentially as described earlier. VHHs were analysed at 100 nM concentration, and off-rates were determined using fitting of 1:1 langmurian interaction. Dissociation constants were compared to 2HFO42^{∘}Q1E, Q5V, Q108L) ^{∘}P101500004) and 2MFR67 ^{∘}Q1E, Q5V, Q108L) ^{∘}P0150000), respectively.

[5] = biological target: T1, mouse folate receptor alpha (mFRα), …; assay: as above
Experimental: as §2

[6] = biological target: T2, human folate receptor alpha (hFRα), …; assay: ITC, VHH injected into 6.5 µM glycosylated human FOLR1 in PBS, room temperature, single binding site model
Excerpt: as §1

[7] = biological target: T2, human folate receptor alpha (hFRα), …; assay: ELISA, periplasmic extract
Excerpt: (§3) From the lymphocytes of each llama a separate VHH library was constructed to select and screen for the presence of antigen-specific VHHs. To this end, total RNA from peripheral blood lymphocytes was used as template for first strand cDNA synthesis with an oligo ^{∘}dT) primer. Using this cDNA, the VHH encoding sequences were amplified by PCR, digested with PstI and NotI, cloned into the PstI and NotI sites of the phagemid vector pMECS and transformed into E. coli to generate VHH libraries. To enrich these libraries for FRα ^{∘}or FOLR1, as used interchangeably herein)-specific VHHs, a combinatorial panning approach on recombinant human and mouse FOLR1 was used followed by random selection and screening of clones by ELISA for the presence of antigen-specific VHHs in their periplasmic extracts ^{∘}PEs). In order to gauge the cross-reactivity for human and mouse FOLR1, each clone was tested on both antigens.
(§4) After panning of core76/77 on human and mouse folate receptor alpha ^{∘}FRα), […] were randomly selected from the second and third rounds and analyzed by ELISA on both human and mouse FRα for the presence of FRα-specific VHHs in their periplasmic extracts ^{∘}PE). This led to the identification of 98 hits. For these 98 hits, the off-rate ^{∘}koff) in the PE was determined by biolayer interferometry ^{∘}BLI) on both mouse and human FRα that was directly immobilized onto AR2G biosensors. The off-rates were calculated using a 1:1 binding model. […] Abbreviations: SE: standard error.

[8] = biological target: T1, mouse folate receptor alpha (mFRα), …; assay: ELISA, periplasmic extract
Excerpt: as §3, §4

[9] = biological target: T2, human folate receptor alpha (hFRα), …; assay: BLI, FRα on AR2G biosensors, 1:1 model
Experimental: (§5) As a next step, the kinetic binding constants were determined using BLI ^{∘}Table 3). […] Similar to the ELISA results ^{∘}FIG. 1A-B), higher binding affinities were measured for mouse FRα than human FRα, with KD values […] one order of magnitude in most cases. […] For 3HFO28, binding to human FRα could not be confirmed by BLI, and this VHH was excluded from further characterization.
(§6) The kinetic parameters were calculated using a 1:1 binding model.

[10] = biological target: T1, mouse folate receptor alpha (mFRα), …; assay: BLI, FRα on AR2G biosensors, 1:1 model
Experimental: as §5, §6

[11] = biological target: T3, human folate receptor beta (FRβ) (human, UniProt P14207 17-230, limits assumed); assay: method not named (follows the ELISA of Example 3)
T3 construct: also called hFOLR2; human FOLR2

[12] = biological target: T2, human folate receptor alpha (hFRα), …; assay: BLI, periplasmic extract, FRα on AR2G biosensors
Experimental: as §4

[13] = biological target: T1, mouse folate receptor alpha (mFRα), …; assay: BLI, periplasmic extract, FRα on AR2G biosensors
Experimental: as §4

[14] = biological target: T1, mouse folate receptor alpha (mFRα), …; assay: ELISA on recombinant mouse FOLR1, cMyc tag detection, normalised binding, non-linear fit
Experimental: (§7) Data were normalized and technical replicates were plotted as mean±SD. Data were fitted by non-linear regression and the half-maximal effective concentration ^{∘}EC50) was calculated using GraphPad Prism 9 software. ^{∘}FIG. 1C and FIG. 1D) Binding affinity determination of anti-FOLR1 VHHs for native FOLR1. Mouse ^{∘}FIG. 1C) or human FOLR1 FIG. 1D) was overexpressed on HEK293T cells and binding of the anti-FOLR1 VHHs was assessed using flow cytometry. The mean fluorescence intensity ^{∘}MFI) of the phycoerythrin signal was plotted for each VHH concentration. Data were fitted by non-linear regression using GraphPad Prism 9 software. ^{∘}FIG. 1E) Determination of the competition of representative family members with folic acid ^{∘}FA) using ELISA. Mouse FOLR1 was coated on the plate and was pre-incubated with or without 100 μM FA before adding the VHHs. Data were fitted by non-linear regression using GraphPad Prism 9 software.
(§8) In a first step, binding affinity and cross-reactivity of the purified VHHs to human and mouse FRα was assessed by ELISA, using detection of the cMyc tag ^{∘}FIG. 1A-B). […] 2HFO19 ^{∘}family 1) was the best binder of all tested VHHs to both mouse and human FRα with an EC₅₀ of 0.1 nM and 0.4 nM respectively ^{∘}FIG. 1A-B).

[15] = biological target: T2, human folate receptor alpha (hFRα), …; assay: ELISA on recombinant human FOLR1, cMyc tag detection, normalised binding, non-linear fit
Experimental: as §7, §8

[16] = biological target: T4, mouse folate receptor alpha expressed on transfected HEK293T cells (mouse, UniProt P35846 25-232); assay: flow cytometry on HEK293T cells overexpressing mouse FOLR1, His tag detection, PE MFI, non-linear fit
T4 construct: also called cell-expressed mouse FRα
Experimental: as §7

[17] = biological target: T5, human folate receptor alpha expressed on cells (transfected HEK293T, HeLa, MCF7, MDA-MB-231) (human, UniProt P15328 25-234); assay: flow cytometry on HEK293T cells overexpressing human FOLR1, His tag detection, PE MFI, non-linear fit
T5 construct: HEK293T transiently transfected with human FOLR1; also called native human FRα; cell-expressed human FOLR1
Experimental: as §7

T1 sequence (P35846 25-232 limits assumed): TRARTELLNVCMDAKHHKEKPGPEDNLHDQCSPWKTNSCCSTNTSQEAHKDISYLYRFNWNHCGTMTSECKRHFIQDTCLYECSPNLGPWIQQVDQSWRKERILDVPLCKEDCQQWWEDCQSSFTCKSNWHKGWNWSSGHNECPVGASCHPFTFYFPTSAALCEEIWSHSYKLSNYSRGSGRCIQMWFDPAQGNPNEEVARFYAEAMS
T2 sequence (P15328 25-233 limits assumed): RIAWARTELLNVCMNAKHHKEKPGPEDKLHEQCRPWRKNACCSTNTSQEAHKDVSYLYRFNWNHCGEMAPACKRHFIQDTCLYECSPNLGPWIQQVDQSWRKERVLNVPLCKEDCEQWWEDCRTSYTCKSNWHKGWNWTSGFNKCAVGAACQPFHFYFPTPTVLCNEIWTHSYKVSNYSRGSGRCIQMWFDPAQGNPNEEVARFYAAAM
T4 sequence (P35846 25-232 limits assumed): as the sequence (P35846 25-232 limits assumed) above
T3 sequence (P14207 17-230 limits assumed): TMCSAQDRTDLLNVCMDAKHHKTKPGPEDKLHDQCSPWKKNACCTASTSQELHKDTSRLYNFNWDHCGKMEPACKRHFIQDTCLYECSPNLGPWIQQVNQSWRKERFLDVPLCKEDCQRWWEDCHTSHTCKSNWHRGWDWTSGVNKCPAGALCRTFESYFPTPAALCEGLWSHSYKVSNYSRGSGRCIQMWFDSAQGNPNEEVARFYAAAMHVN
T5 sequence (P15328 25-234 limits assumed): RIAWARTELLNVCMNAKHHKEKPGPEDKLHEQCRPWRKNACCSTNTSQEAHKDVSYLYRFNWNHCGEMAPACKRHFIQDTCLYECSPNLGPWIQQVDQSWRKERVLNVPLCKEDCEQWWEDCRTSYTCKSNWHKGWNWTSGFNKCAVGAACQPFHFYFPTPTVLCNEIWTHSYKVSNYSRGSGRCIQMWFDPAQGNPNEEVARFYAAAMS

B1: P01500001 = humanised variant 1 (h1) 2HFO42-His6: 2HF042(Q1E, Q5V, A14P, V40A, L79Y, K83R, Q108L)-HIS6 (VHH)
VHH: EVQLVESGGGLVQPGGSLRLSCAASGSGFSGMIMGWYRQAPGKQRELVATVTSHGTTNYADSVKGRFTISRDNAKNTVYLQMNSLRPEDTAVYYCNAHFPGIYWGKGTLVTVSS
notes: Entry includes the tag; also called P0150001; humanised 2HFO42
For B1, which “EC50 (read off the curve)” value [1] is on record?
Its value is roughly 4 nM.

What about the “stoichiometry (ITC)” value [2] of the same binder?
Its value is 1.

And the IC50 [3]?
The IC50 was 37.3 nM.

What about the koff [4] of the same binder?
Its koff is 0.011 s⁻¹.

What about the koff [5] of the same binder?
Its koff is 0.00126 s⁻¹.

And the “-TΔS” value [6]?
Its value is -3.04 kcal/mol.

What about the Kd [6] of the same binder?
Its Kd is 39.2 nM.

And the ΔG [6]?
The ΔG was -10.1 kcal/mol.

What about the ΔH [6] of the same binder?
The ΔH was -7.07 kcal/mol.

B2: P01500005: 2MFR67(Q1E, Q5V, Q108L)-HIS6 (VHH)
VHH: EVQLVESGGGLVQAGGSLRLSCAASGSGFSGMIMGWYRQAPGKQRELVATVTSHGTTNYADSVKGRFTISREDSKNTVLLQMNSLKPEDTAVYYCNAHFPGIYWGKGTLVTVSS
notes: Entry includes the tag; also called 2MFR67 (P01500005); P0150005
With B2 as the binder, how does the “EC50 (read off the curve)” value [1] read?
Its value is roughly 3 nM.

And the “stoichiometry (ITC)” value [2]?
The value was 1.

What about the IC50 [3] of the same binder?
The IC50 was 5.53 nM.

And the koff [4]?
Its koff is 0.00353 s⁻¹.

And the koff [5]?
Its koff is 0.000532 s⁻¹.

And the “-TΔS” value [6]?
Its value is 3.57 kcal/mol.

And the Kd [6]?
The Kd was 18.2 nM.

And the ΔG [6]?
The ΔG was -10.6 kcal/mol.

And the ΔH [6]?
The ΔH was -14.1 kcal/mol.

B3: VHH 2MFR7 (family 1) (VHH)
VHH: QVQLQESGGGLVQPGGSLRLSCAASGFPFSTYYMSWVRQAPGKGLEWVSGINSNGGVIDYADSVKGRFTISRDNAKNTLYLQLNSLKPEDTALYFCARGRAFVATMPSSLRGQGTQVTVSS
notes: also called 2MFRO7
For B3, which “PE-ELISA (ratio to uncoated well)” value [7] is on record?
Its value is 12.4.

What about the “PE-ELISA (ratio to uncoated well)” value [8] of the same binder?
Its value is 14.1.

And the Kd [9]?
The Kd was 70.9 nM.

What about the koff [9] of the same binder?
Its koff is 0.0849 s⁻¹.

What about the kon [9] of the same binder?
The kon was 1.2e+06 M⁻¹ s⁻¹.

What about the Kd [10] of the same binder?
The Kd was 16.7 nM.

And the koff [10]?
Its koff is 0.0527 s⁻¹.

And the kon [10]?
The kon was 3.15e+06 M⁻¹ s⁻¹.

Does B3 bind [11]?
Result: no binding

What about the koff [12] of the same binder?
The koff was 0.108 s⁻¹.

And the koff [13]?
The koff was 0.0542 s⁻¹.

And the EC50 [14]?
Its EC50 is 0.6 nM.

And the EC50 [15]?
Its EC50 is 11.6 nM.

What about the EC50 [16] of the same binder?
Its EC50 is 1.5 nM.

And the EC50 [17]?
Its EC50 is 20.2 nM.

B4: VHH 3HFO26 (family 1) (VHH)
VHH: QVQLQESGGGLVQPGGSLRITCVASGFPFSTYYMSWVRQAPGKGLEWVSGINSNGGVIDYADSVKGRFTISRDNAKNTLYLQLNSLKPEDTALYFCARGRAFVATMPSSLRGQGTQVTVSS
With B4 as the binder, how does the “PE-ELISA (ratio to uncoated well)” value [7] read?
The value was 4.8.

And the “PE-ELISA (ratio to uncoated well)” value [8]?
The value was 4.9.

And the Kd [9]?
Its Kd is 662 nM.

What about the koff [9] of the same binder?
Its koff is 0.182 s⁻¹.

And the kon [9]?
Its kon is 275000 M⁻¹ s⁻¹.

And the Kd [10]?
The Kd was 7.86 nM.

What about the koff [10] of the same binder?
The koff was 0.0197 s⁻¹.

And the kon [10]?
The kon was 2.5e+06 M⁻¹ s⁻¹.

Does B4 bind [11]?
Result: no binding

What about the koff [12] of the same binder?
The koff was 0.0582 s⁻¹.

And the koff [13]?
Its koff is 0.0135 s⁻¹.

And the EC50 [14]?
The EC50 was 0.3 nM.

And the EC50 [15]?
The EC50 was 20.3 nM.

What about the EC50 [16] of the same binder?
The EC50 was 1.4 nM.

And the EC50 [17]?
Its EC50 is 7 nM.

— patent US20250304677A1 (VIB VZW, published 2025)
